From US20260217833A1 (APTEVO RESEARCH AND DEVELOPMENT, published 2026)
Changes are numbered by the printed parent chain. Where two headings read alike, the source gives them in different places.

Legend:
[1] = molecular target: T1, human CD40 full-length (human, UniProt P25942 21-277); experiment: flow cytometry, CHOK1SV/human CD40 cells
T1 construct: Also used for CD40 of Daudi cells, of CD40-expressing HEK293 cells and of the BPS CD40/NFkB HEK293 reporter cells where the row says so; also called CD4001012; CHOK1SV/CD40

[2] = molecular target: T2, Human PD-L1 full-length (human, UniProt Q9NZQ7 19-290); experiment: flow cytometry, CHOK1SV/human PD-L1 cells
T2 construct: also called PDL01021; CHOK1SV/huPDL1
T2 sequence (Q9NZQ7 19-290): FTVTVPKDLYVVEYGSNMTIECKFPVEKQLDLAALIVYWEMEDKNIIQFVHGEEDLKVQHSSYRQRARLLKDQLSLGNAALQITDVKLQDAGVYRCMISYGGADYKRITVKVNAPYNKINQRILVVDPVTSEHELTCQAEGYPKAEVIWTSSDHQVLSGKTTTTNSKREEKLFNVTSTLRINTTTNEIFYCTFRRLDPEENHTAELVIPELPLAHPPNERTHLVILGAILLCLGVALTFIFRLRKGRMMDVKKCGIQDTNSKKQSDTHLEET

[3] = molecular target: T1, human CD40 full-length; experiment: flow cytometry, CHOK1SV/human CD40 cells; remark: listed apart in the source
[4] = molecular target: T3, human CD40 ECD- HAC tag (human); experiment: SPR, binder captured on anti-human IgG, monomeric CD40 ECD injected, 1:1 fit
T3 construct: also called CD4001006; recombinant monomeric human CD40 ectodomain (ECD)

[5] = molecular target: T1, human CD40 full-length; experiment: flow cytometry, CHOK1SV/human CD40 cells; remark: listed apart in the source
[6] = molecular target: T4, Cynomolgus CHOK1SV/CD40; experiment: flow cytometry, CHOK1SV/cynomolgus CD40 cells
T4 construct: also called Cyno CD40 full-length; CD4001013
T4 receptor chain: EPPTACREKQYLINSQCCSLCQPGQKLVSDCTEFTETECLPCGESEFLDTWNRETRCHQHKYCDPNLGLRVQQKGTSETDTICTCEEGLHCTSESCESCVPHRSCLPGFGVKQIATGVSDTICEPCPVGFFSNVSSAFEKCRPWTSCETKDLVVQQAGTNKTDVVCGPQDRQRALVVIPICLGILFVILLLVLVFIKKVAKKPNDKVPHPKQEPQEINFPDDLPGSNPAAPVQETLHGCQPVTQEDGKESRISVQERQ

[7] = molecular target: T1, human CD40 full-length; experiment: flow cytometry, CHOK1SV/human CD40 cells; remark: listed apart in the source
Target sequence in this assay (P25942 21-277): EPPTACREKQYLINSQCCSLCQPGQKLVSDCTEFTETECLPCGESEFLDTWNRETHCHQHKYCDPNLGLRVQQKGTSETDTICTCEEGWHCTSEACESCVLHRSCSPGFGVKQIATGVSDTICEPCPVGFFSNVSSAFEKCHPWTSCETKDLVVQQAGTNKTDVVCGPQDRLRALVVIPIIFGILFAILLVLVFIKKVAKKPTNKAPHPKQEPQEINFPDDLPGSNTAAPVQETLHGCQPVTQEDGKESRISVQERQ

B1: CD4001068 (bispecific antibody)
PDL_5F9 x Fc-Knob: EVQLVESGGGLVKPGGSLRLSCAASGFTFSDYGMAWVRQAPGKGLEWVAFITSLAYIIYYADSVKGRFTISRDNAKNSLYLQMNSLRAEDTAVYYCARNYGSSPYYFDYWGQGTLVTVSSGGGGSGGGGSGGGGSGGGGSDIQMTQSPSSLSASVGDRVTITCRASQDINKFLSWYQQKPGKAPKLLIHYTSSLQPGVPSRFSGSGSGTDFTLTISSLQPEDFATYYCLQYDNLYTFGQGTKLEIKEPKSSDKTHTCPPCPAPPAAAPSVFLFPPKPKDTLMISRTPEVTCVVVDVSHEDPEVKFNWYVDGVEVHNAKTKPREEQYNSTYRVVSVLTVLHQDWLNGKEYKCAVSNKALPAPIEKTISKAKGQPREPQVYTLPPSRDELTKNQVSLWCLVKGFYPSDIAVEWESNGQPENNYKTTPPVLDSDGSFFLYSKLTVDKSRWQQGNVFSCSVMHEALHNHYTQKSLSLSPG
CD40_5B9 x Fc-Hole: DVVMTQTPLSLPVSLGDQASISCRSSQSLVHYNGYTYLHWYLQKPGQSPKLLIYKVSNRFSGVPDRFSGSGSGTDFTLKISRVEAEDLGVYFCSQTTHVPLTFGAGTKLELRGGGGSGGGGSGGGGSGGGGSEVMLVESGGGLVKPGGSLKLSCAASGFTFSSYAMSWVRQTPERRLEWVASISSAGTYIYYPDSVKGRFTISRDNAKNILYLQMNSLRSEDTAMYYCARHGNGYDPLWYFDVWGAGTTVTVSSEPKSSDKTHTCPPCPAPPAAAPSVFLFPPKPKDTLMISRTPEVTCVVVDVSHEDPEVKFNWYVDGVEVHNAKTKPREEQYNSTYRVVSVLTVLHQDWLNGKEYKCAVSNKALPAPIEKTISKAKGQPREPQVYTLPPSRDELTKNQVSLSCAVKGFYPSDIAVEWESNGQPENNYKTTPPVLDSDGSFFLVSKLTVDKSRWQQGNVFSCSVMHEALHNRFTQKSLSLSPG
EC50 (read off the curve) [1]: ~5 nM | binding result [2]: binds

B2: CD4001133 (Fc fusion)
VH: EVQLVESGGGLVQPGGSLRLSCAASGFTFSSYAMSWVRQAPGKGLEWVSAISSAGTYIYYADSVKGRFTISRDNSKNTLYLQMNSLRAEDTAVYYCARHGNGYDPLWYFDVWGQGTTVTVSS
VL: DIQMTQSPSSLSASVGDRVTITCRASQSLVHYNGYTYLNWYQQKPGKAPKLLIYKVSNRFSGVPDRFSGSGSGTDFTLTISSLQPEDFATYYCQQTTHVPLTFGQGTKVEIK
notes: Tested as scFv on the N-terminus of a wildtype IgG1 Fc region; also called Humanized 5B9
EC50 (read off the curve) [3]: ~7 nM | Kd [4]: 85 nM | koff [4]: 0.019 s⁻¹ | kon [4]: 230000 M⁻¹ s⁻¹

B3: PC401129 (bispecific antibody)
scFv-Fc-scFv chain: DIQMTQSPSSLSASVGDRVTITCRASQDINKFLSWYQQKPGKAPKLLIHYTSSLQSGVPSRFSGSGSGTDFTLTISSLQPEDFATYYCLQYDNLYTFGQGTKLEIKGGGGSGGGGSGGGGSGGGGSEVQLVESGGGLVQPGGSLRLSCAASGFTFSDYGMAWVRQAPGKGLEWVSFITSLAYIIYYADSVKGRFTISRDNAKNSLYLQMNSLRAEDTAVYYCARNYGSSPYYFDYWGQGTLVTVSSEPKSSDKTHTCPPCPAPPAAAPSVFLFPPKPKDTLMISRTPEVTCVVVDVSHEDPEVKFNWYVDGVEVHNAKTKPREEQYNSTYRVVSVLTVLHQDWLNGKEYKCAVSNKALPAPIEKTISKAKGQPREPQVYTLPPSRDELTKNQVSLTCLVKGFYPSDIAVEWESNGQPENNYKTTPPVLDSDGSFFLYSKLTVDKSRWQQGNVFSCSVMHEALHNHYTQKSLSLSPGGGGSPSDIQMTQSPSSVSASVGDRVTITCRASQSLNFSVNQKNYLAWYQQKPGKAPKLLIYWASSLQSGVPSRFSGSGSGTDFTLTISSLQPEDFATYYCQHYYSYPWTFGQGTKVEIKGGGGSGGGGSGGGGSGGGGSQVQLVQSGAEVKKPGSSVKVSCKASGYTFSTSWIEWIRQAPGQGLEWMGSILPGSGSTNYAQKFQGRVTITADTSTSTAYMELSSLRSEDTAVYYCARGDDGSYVRWYFDHWGQGTLVTVSS
notes: also called L-Leu30Asn
binding result [5]: binds | binding result [6]: binds

B4: PC401133 (bispecific antibody)
scFv-Fc-scFv chain: B3 scFv-Fc-scFv chain with N512L, L667Q
notes: also called H-Leu52Gln
binding result [5]: binds | binding result [6]: binds

B5: PC401132 (bispecific antibody)
scFv-Fc-scFv chain: B3 scFv-Fc-scFv chain with N512L, L667N
notes: also called H-Leu52Asn
binding result [5]: binds | binding result [6]: binds

B6: CD4001048 (bispecific antibody)
scFv-Fc-scFv chain: DVVMTQTPLSLPVSLGDQASISCRSSQSLVHYNGYTYLHWYLQKPGQSPKLLIYKVSNRFSGVPDRFSGSGSGTDFTLKISRVEAEDLGVYFCSQTTHVPLTFGAGTKLELRGGGGSGGGGSGGGGSGGGGSEVMLVESGGGLVKPGGSLKLSCAASGFTFSSYAMSWVRQTPERRLEWVASISSAGTYIYYPDSVKGRFTISRDNAKNILYLQMNSLRSEDTAMYYCARHGNGYDPLWYFDVWGAGTTVTVSSEPKSSDKTHTCPPCPAPPAAAPSVFLFPPKPKDTLMISRTPEVTCVVVDVSHEDPEVKFNWYVDGVEVHNAKTKPREEQYNSTYRVVSVLTVLHQDWLNGKEYKCAVSNKALPAPIEKTISKAKGQPREPQVYTLPPSRDELTKNQVSLTCLVKGFYPSDIAVEWESNGQPENNYKTTPPVLDSDGSFFLYSKLTVDKSRWQQGNVFSCSVMHEALHNHYTQKSLSLSPGGGGSPSEVQLVESGGGLVKPGGSLRLSCAASGFTFSDYGMAWVRQAPGKGLEWVAFITSLAYIIYYADSVKGRFTISRDNAKNSLYLQMNSLRAEDTAVYYCARNYGSSPYYFDYWGQGTLVTVSSGGGGSGGGGSGGGGSGGGGSDIQMTQSPSSLSASVGDRVTITCRASQDINKFLSWYQQKPGKAPKLLIHYTSSLQPGVPSRFSGSGSGTDFTLTISSLQPEDFATYYCLQYDNLYTFGQGTKLEIK
notes: also called CD40_5B9 x hFc x PDL_5F9
binding result [1]: binds | binding result [2]: binds

B7: CD4001100 (Fc fusion)
chain: DVQMTQSPILLSASVGDRVTITCRSSQSLVHYNGYTYVHWYQQRTNGSPRLLIYKVSNRFSGVPDRFSGSGSGTDFTLTISSLQPEDIADYFCQQTTHVPLTFGAGTKVEIKGGGGSGGGGSGGGGSGGGGSEVQLVESGGGLEQPGGSLRLSCAASGFTFSSYAMSWVRQAPGKGLEWVASISSAGTYIYYADSVKGRFTISRDNSKNTLYLQMNSLRAEDTAVYYCARHGNGYDPLWYFDVWGQGTTVTVSS
notes: As m65; not shown: wildtype IgG1 Fc region
binding result [7]: binds | Kd [4]: 21 nM | koff [4]: 0.006 s⁻¹ | kon [4]: 290000 M⁻¹ s⁻¹

B8: CD4001132 (Fc fusion)
chain: DVQMTQSPILLSASVGDRVTITCRSSQSLVHYNGYTYVHWYQQKPGKAPKLLIYKVSNLFSGVPSRFSGSGSGTDFTLTISSLQPEDIADYFCQQTTHVPLTFGAGTKVEIKGGGGSGGGGSGGGGSGGGGSEVQLVESGGGLVQPGGSLRLSCAASGFTFSSYAMSWVRQAPGKGLEWVSAISSAGTYIYYADSVKGRFTISRDNSKNTLYLQMNSLRAEDTAVYYCARHGNGYDPLWYFDVWGQGTTVTVSS
notes: as for B7
EC50 (read off the curve) [3]: ~5 nM | kon [4]: 240000 M⁻¹ s⁻¹

B9: CD4001065 (PDL_5F9 x hFc x CD40_5B9) (bispecific antibody)
chain: EVQLVESGGGLVKPGGSLRLSCAASGFTFSDYGMAWVRQAPGKGLEWVAFITSLAYIIYYADSVKGRFTISRDNAKNSLYLQMNSLRAEDTAVYYCARNYGSSPYYFDYWGQGTLVTVSSGGGGSGGGGSGGGGSGGGGSDIQMTQSPSSLSASVGDRVTITCRASQDINKFLSWYQQKPGKAPKLLIHYTSSLQPGVPSRFSGSGSGTDFTLTISSLQPEDFATYYCLQYDNLYTFGQGTKLEIKEPKSSDKTHTCPPCPAPPAAAPSVFLFPPKPKDTLMISRTPEVTCVVVDVSHEDPEVKFNWYVDGVEVHNAKTKPREEQYNSTYRVVSVLTVLHQDWLNGKEYKCAVSNKALPAPIEKTISKAKGQPREPQVYTLPPSRDELTKNQVSLTCLVKGFYPSDIAVEWESNGQPENNYKTTPPVLDSDGSFFLYSKLTVDKSRWQQGNVFSCSVMHEALHNHYTQKSLSLSPGGGGSPSDVVMTQTPLSLPVSLGDQASISCRSSQSLVHYNGYTYLHWYLQKPGQSPKLLIYKVSNRFSGVPDRFSGSGSGTDFTLKISRVEAEDLGVYFCSQTTHVPLTFGAGTKLELRGGGGSGGGGSGGGGSGGGGSEVMLVESGGGLVKPGGSLKLSCAASGFTFSSYAMSWVRQTPERRLEWVASISSAGTYIYYPDSVKGRFTISRDNAKNILYLQMNSLRSEDTAMYYCARHGNGYDPLWYFDVWGAGTTVTVSS
notes: ADAPTIR format, anti-PD-L1 scFv on N-terminus, anti-CD40 scFv on C-terminus; also called CD4001065 (5B9)
binding result [1]: binds | binding result [2]: binds

B10: CD401136 (Fc fusion)
scFv: DIVMTQSPDSLALSLGERATMNCKSSQSLLFSVNQKNYLAWYQQKPGQPPKLLIYWASTRESGVPDRFSGSGSGTDFTLTISSLQAEDVAVYYCQHYYSYPWTFGQGTKLEIKGGGGSGGGGSGGGGSGGGGSQVQLVQSGAEVKKPGASVKVSCKASGYTFSTSWMEWVRQAPGQGLEWMGEILPGSGSTNYAQKFQGRVTMTRDTSTSTVYMELSSLRSEDTAVYYCARGDDGSYVRWYFDVWGQGTTVTVSS
notes: humanized 1D5 variant; also called CD4001136; not shown: human Fc (scFv-hFc format, scFv at the N-terminus) and its junction
binding result [3]: binds

B11: CD401137 (Fc fusion)
scFv: QIVMTQSPGTLSLSPGERATMTCKSSQSLLFSVNQKNYLAWYQQKPGQAPRLLIYWASTRESGVPDRFSGSGSGTDFTLTISRLEPEDAATYYCQHYYSYPWTFGAGTKLEIKGGGGSGGGGSGGGGSGGGGSQVQLVQSGAEVKKPGASVKVSCKASGYTFSTSWMEWVRQAPGQGLEWMGEILPGSGSTNYAQKFQGRVTMTRDTSTSTVYMELSSLRSEDTAVYYCARGDDGSYVRWYFDVWGQGTTVTVSS
notes: humanized 1D5 variant; also called CD4001137; not shown: human Fc (scFv-hFc format, scFv at the N-terminus) and its junction
binding result [3]: binds

B12: CD401134 (Fc fusion)
scFv: B10 scFv with Q136K, M167I, V170I, M181I, V201A, M203F, R205A, V212A
notes: humanized 1D5 variant; also called CD4001134; not shown: human Fc (scFv-hFc format, scFv at the N-terminus) and its junction
binding result [3]: binds

B13: CD401135 (Fc fusion)
scFv: B10 scFv with M167I, M181I, V201A, M203F, R205A, V212A
notes: humanized 1D5 variant; also called CD4001135; not shown: human Fc (scFv-hFc format, scFv at the N-terminus) and its junction
binding result [3]: binds
